According to article PMC10786891, “Massively parallel profiling of RNA-targeting CRISPR-Cas13d”:
Positions count from the first letter of the chain named. Numbers in names are those of the source.

T1: EsCas13d, nuclease-dead (Eubacterium siraeum, UniProt B0MS50, R295A;H300A;R849A;H854A)
T1 sequence: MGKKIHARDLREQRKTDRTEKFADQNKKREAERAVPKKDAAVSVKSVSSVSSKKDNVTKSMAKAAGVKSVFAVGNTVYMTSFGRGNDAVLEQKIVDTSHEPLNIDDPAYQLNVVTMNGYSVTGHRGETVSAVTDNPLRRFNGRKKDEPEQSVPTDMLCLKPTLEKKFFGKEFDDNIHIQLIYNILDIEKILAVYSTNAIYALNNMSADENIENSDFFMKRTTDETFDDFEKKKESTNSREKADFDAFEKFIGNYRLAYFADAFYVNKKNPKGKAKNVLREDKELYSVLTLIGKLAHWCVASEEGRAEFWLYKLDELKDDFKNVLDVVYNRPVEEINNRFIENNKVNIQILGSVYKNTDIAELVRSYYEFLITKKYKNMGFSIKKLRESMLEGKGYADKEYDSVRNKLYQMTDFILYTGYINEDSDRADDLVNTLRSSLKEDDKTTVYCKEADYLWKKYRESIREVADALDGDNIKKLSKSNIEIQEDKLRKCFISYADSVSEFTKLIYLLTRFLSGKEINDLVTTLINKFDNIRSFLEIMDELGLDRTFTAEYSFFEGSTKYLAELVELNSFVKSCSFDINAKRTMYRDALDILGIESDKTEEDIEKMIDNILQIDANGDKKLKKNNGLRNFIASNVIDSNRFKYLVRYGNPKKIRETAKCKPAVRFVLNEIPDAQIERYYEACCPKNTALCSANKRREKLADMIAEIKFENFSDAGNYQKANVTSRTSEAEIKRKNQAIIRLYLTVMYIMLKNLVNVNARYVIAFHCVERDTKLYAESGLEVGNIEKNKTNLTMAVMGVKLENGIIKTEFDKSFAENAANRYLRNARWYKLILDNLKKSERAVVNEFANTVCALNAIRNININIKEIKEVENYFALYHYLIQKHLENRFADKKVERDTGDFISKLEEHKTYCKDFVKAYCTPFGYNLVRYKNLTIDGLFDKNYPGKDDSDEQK

B1: target 1 insU 3' of 5,insC 3' of 5 (mixed)
RNA 1: CACCCGUGCAAAAAUGCAGGGGUCUAAAACUGAGCGGAUAACCUCUCUAUGG
RNA 2: GGGAAUGGAUCCACAUCUACGAAUUCGUACCAUAGAGAGGUUAUCCGUCCUCACCGAGAUCGGAAGAGCACACGU
B2: target 1 C2G,U11C (mixed)
RNA 1: B1 RNA 1
RNA 2: GGGAAUGGAUCCACAUCUACGAAUUCGUACCAUAGAGAGGCUAUCCGCUGACCGAGAUCGGAAGAGCACACGU
B3: target 1 insC 3' of 19,insA 3' of 19 (mixed)
RNA 1: B1 RNA 1
RNA 2: GGGAAUGGAUCCACAUCUACGAAUUCGUACCAUCAAGAGAGGUUAUCCGCUCACCGAGAUCGGAAGAGCACACGU
B4: target 1 insU 3' of 18,insU 3' of 1 (mixed)
RNA 1: B1 RNA 1
RNA 2: GGGAAUGGAUCCACAUCUACGAAUUCGUACCAUAUGAGAGGUUAUCCGCUCAUCCGAGAUCGGAAGAGCACACGU
B5: target 1 insA 3' of 19,insU 3' of 12 (mixed)
RNA 1: B1 RNA 1
RNA 2: B3 RNA 2 with C34A, A36G, G37A, A38G, G39A, A40G, G42U
B6: target 1 A1U,C6A (mixed)
RNA 1: B1 RNA 1
RNA 2: B2 RNA 2 with C41U, C46A, G50C, A51U
B7: target 1 G12C,C22U (mixed)
RNA 1: B1 RNA 1
RNA 2: B2 RNA 2 with C30U, G40C, C41U, G50C
B8: target 1 insC 3' of 17,insU 3' of 5 (mixed)
RNA 1: B1 RNA 1
RNA 2: B4 RNA 2 with U35G, G36C, C49U, U50C, C51U, A52C, U53A
B9: target 1 C6A (mixed)
RNA 1: B1 RNA 1
RNA 2: B2 RNA 2 with C41U, C46A, G50C
B10: target 1 G12U,A18G (mixed)
RNA 1: B1 RNA 1
RNA 2: B2 RNA 2 with A34G, G40U, C41U, G50C
B11: target 1 C7A,A9G (mixed)
RNA 1: B1 RNA 1
RNA 2: B2 RNA 2 with C41U, A43G, C45A, G50C
B12: target 1 C6A,C7A (mixed)
RNA 1: B1 RNA 1
RNA 2: B2 RNA 2 with C41U, C45A, C46A, G50C
B13: target 1 del9,del13 (mixed)
RNA 1: B1 RNA 1
RNA 2: GGGAAUGGAUCCACAUCUACGAAUUCGUACCAUAGAGAGUUUCCGCUCACCGAGAUCGGAAGAGCACACGU
B14: target 1 G17U,U19C (mixed)
RNA 1: B1 RNA 1
RNA 2: B2 RNA 2 with U33C, G35U, C41U, G50C
B15: target 1 C2A,C22A (mixed)
RNA 1: B1 RNA 1
RNA 2: B2 RNA 2 with C30A, C41U, G50A
B16: target 1 complement block 6-9 (mixed)
RNA 1: B1 RNA 1
RNA 2: B2 RNA 2 with C41U, A43U, U44A, C45G, C46G, G50C
B17: target 1 insU 3' of 7,insG 3' of 1 (mixed)
RNA 1: B1 RNA 1
RNA 2: B1 RNA 2 with C46U, G47C, U48G, C50U, U51C, C52A, A53G
B18: target 1 insC 3' of 10,insA 3' of 5 (mixed)
RNA 1: B1 RNA 1
RNA 2: B1 RNA 2 with A43C, U44A, C45U, G47C, U48G, C49A
B19: target 1 insU 3' of 9,insA 3' of 6 (mixed)
RNA 1: B1 RNA 1
RNA 2: B1 RNA 2 with C45U, G47C, U48A, C49G
B20: target 1 insU 3' of 20,insA 3' of 6 (mixed)
RNA 1: B1 RNA 1
RNA 2: B4 RNA 2 with A34U, U35A, G48A, C49G, U50C, C51U, A52C, U53A
B21: target 1 insC 3' of 9,insA 3' of 4 (mixed)
RNA 1: B1 RNA 1
RNA 2: B1 RNA 2 with U44C, C45U, G47C, U48G, C50A
B22: target 1 insA 3' of 21,insA 3' of 11 (mixed)
RNA 1: B1 RNA 1
RNA 2: B3 RNA 2 with U33A, C34U, A36G, G37A, A38G, G39A, A40G, G42U, U43A
B23: target 1 C7G,U11A (mixed)
RNA 1: B1 RNA 1
RNA 2: B2 RNA 2 with C41A, C45G, G50C
B24: target 1 insA 3' of 3,insG 3' of 2 (mixed)
RNA 1: B1 RNA 1
RNA 2: B1 RNA 2 with U48C, C49U, C50A, U51C, C52G
B25: target 1 U3G,G5A (mixed)
RNA 1: B1 RNA 1
RNA 2: B2 RNA 2 with C41U, G47A, U49G, G50C
B26: target 1 insU 3' of 12,insG 3' of 10 (mixed)
RNA 1: B1 RNA 1
RNA 2: B3 RNA 2 with C34A, A35G, A40G, G41U, G42U, U44G
B27: target 1 U10G,A14C (mixed)
RNA 1: B1 RNA 1
RNA 2: B2 RNA 2 with A38C, C41U, U42G, G50C
B28: target 1 complement block 9-12 (mixed)
RNA 1: B1 RNA 1
RNA 2: B2 RNA 2 with G40C, C41A, U42A, A43U, G50C
B29: target 1 insA 3' of 6,insU 3' of 4 (mixed)
RNA 1: B1 RNA 1
RNA 2: B1 RNA 2 with G47A, U48G, C50U
B30: target 1 insG 3' of 19,insA 3' of 15 (mixed)
RNA 1: B1 RNA 1
RNA 2: B3 RNA 2 with C34G, A36G, G37A, A38G, G39A
B31: target 1 U8G,A9G (mixed)
RNA 1: B1 RNA 1
RNA 2: B2 RNA 2 with C41U, A43G, U44G, G50C
B32: target 1 del13 (mixed)
RNA 1: B1 RNA 1
RNA 2: GGGAAUGGAUCCACAUCUACGAAUUCGUACCAUAGAGAGUUAUCCGCUCACCGAGAUCGGAAGAGCACACGU
B33: target 1 insU 3' of 9,insU 3' of 6 (mixed)
RNA 1: B1 RNA 1
RNA 2: B1 RNA 2 with C45U, G47C, C49G
B34: target 1 U8A,G12U (mixed)
RNA 1: B1 RNA 1
RNA 2: B2 RNA 2 with G40U, C41U, U44A, G50C

Target: T1, EsCas13d, nuclease-dead
Experiment: crRNA (strand 1, pre-loaded); Mg2+; 40 mM Tris-HCl pH 7.5, 150 mM NaCl, 6 mM MgCl2, 1 mM DTT, 0.1% Tween-20, 0.2 mg/ml BSA; 25 C; 10 min per concentration, then washed
Details: tags: His6-TwinStrep-SUMO cleaved; N-terminal SNAP kept (SNAP-Surface 488); label: 3' end held by stalled T7 RNA polymerase

Binder	Kd
B1	35 ± 4 nM
B2	7.4 ± 0.4 nM
B3	31.3 ± 2.9 nM
B4	33 ± 1.8 nM
B5	17.9 ± 1.2 nM
B6	7.5 ± 0.4 nM
B7	23.5 ± 1.5 nM
B8	35.2 ± 3.2 nM
B9	6.17 ± 0.3 nM
B10	78 ± 16 nM
B11	11.5 ± 0.5 nM
B12	7.47 ± 0.35 nM
B13	21.3 ± 1.1 nM
B14	14.4 ± 0.8 nM
B15	17.8 ± 3.3 nM
B16	7.7 ± 0.5 nM
B17	13.8 ± 0.6 nM

Binder	Kd
B18	10.4 ± 1.1 nM
B19	23.5 ± 2.7 nM
B20	15.9 ± 1.1 nM
B21	9.5 ± 1 nM
B22	36.6 ± 2.9 nM
B23	25 ± 4 nM
B24	7.05 ± 0.31 nM
B25	43 ± 4 nM
B26	13.1 ± 0.5 nM
B27	94 ± 23 nM
B28	19.9 ± 2.7 nM
B29	19.8 ± 1.1 nM
B30	56 ± 7 nM
B31	19.1 ± 1.3 nM
B32	8.6 ± 0.6 nM
B33	46 ± 6 nM
B34	13.1 ± 0.8 nM
